Where a chain is given by its changes, count along the chain named. Numbers in names are those of the source.
T1: cynomolgus monkey FcγRIIIaS extracellular domain, His-tagged (cynomolgus monkey, UniProt Q8SPW2 21-206 at identity 1.00))
T1 construct: also called cyno FcγRIIIaS; cynoFcgRIIIaS
T1 chain: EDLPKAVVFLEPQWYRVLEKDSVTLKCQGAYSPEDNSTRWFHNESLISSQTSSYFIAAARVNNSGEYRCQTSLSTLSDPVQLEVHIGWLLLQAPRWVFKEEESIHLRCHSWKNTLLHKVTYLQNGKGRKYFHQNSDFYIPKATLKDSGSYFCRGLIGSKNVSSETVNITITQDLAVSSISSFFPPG

T2: cynomolgus monkey FcγRIIb extracellular domain, His-tagged (cynomolgus monkey)
T2 construct: also called cyno FcγRIIb; cynoFcgRIIb
T2 chain: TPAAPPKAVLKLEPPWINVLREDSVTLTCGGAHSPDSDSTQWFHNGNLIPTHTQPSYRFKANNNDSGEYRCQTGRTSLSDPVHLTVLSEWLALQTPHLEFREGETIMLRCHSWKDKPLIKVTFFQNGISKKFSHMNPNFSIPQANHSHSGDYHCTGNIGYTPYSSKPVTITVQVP

T3: human FcγRIIb extracellular domain with C-terminal His-tag (human, UniProt P31994 43-217)
T3 construct: also called human FcgRIIb
T3 sequence: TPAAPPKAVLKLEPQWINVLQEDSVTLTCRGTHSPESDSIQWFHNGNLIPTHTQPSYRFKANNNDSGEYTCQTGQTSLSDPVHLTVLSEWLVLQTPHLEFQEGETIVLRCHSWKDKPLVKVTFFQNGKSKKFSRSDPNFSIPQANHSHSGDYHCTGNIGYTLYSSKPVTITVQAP

T4: cynomolgus monkey FcγRIIIaS extracellular domain with C-terminal His-tag (cynomolgus monkey, UniProt Q8SPW2 21-206 at identity 1.00))
T4 construct: also called cyno FcgRIIIaS; cynoFcγRIIIaS
T4 chain: T1 chain

T5: human FcγRIIaR extracellular domain with C-terminal His-tag (human, UniProt P12318 34-217)
T5 construct: also called human FcgRIIaR; FcγRIIa (type R)
T5 chain: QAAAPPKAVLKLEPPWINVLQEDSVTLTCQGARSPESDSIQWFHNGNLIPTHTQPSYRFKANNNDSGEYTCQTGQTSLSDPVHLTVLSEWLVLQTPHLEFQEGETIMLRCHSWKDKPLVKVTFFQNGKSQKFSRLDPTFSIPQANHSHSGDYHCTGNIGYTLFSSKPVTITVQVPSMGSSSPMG

T6: human FcγRIIaH extracellular domain with C-terminal His-tag (human, UniProt P12318 34-217)
T6 construct: also called human FcgRIIaH; FcγRIIa (type H)
T6 sequence: T5 chain with R134H

T7: human FcγRIIb extracellular domain with C-terminal His-tag (human, UniProt P31994 43-217)
T7 construct: also called human FcgRIIb
T7 sequence: T3 sequence

T8: cynomolgus monkey FcγRIIa2 extracellular domain with C-terminal His-tag (cynomolgus monkey)
T8 construct: also called cyno FcgRIIa2; cynoFcγRIIa2
T8 chain: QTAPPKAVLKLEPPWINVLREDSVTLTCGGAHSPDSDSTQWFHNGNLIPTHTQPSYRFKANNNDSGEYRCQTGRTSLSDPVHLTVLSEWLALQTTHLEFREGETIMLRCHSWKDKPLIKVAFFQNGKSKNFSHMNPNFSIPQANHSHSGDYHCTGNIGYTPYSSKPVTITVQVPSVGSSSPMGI

B1: M103205H795-MY445/M103202L889-SK1 (antibody, human IgG1, kappa, name in EU numbering)
heavy: QVTLKESGPVLVKPTETLTLTCTVSGIDLSHDDISWVRQAPGKGLEWVGIISYAGSTYYASWAKGRLTISKDTSKNQVVLTMTNMDPVDTATYYCARGVPAYSHGGDLWGQGTLVTVSSASTKGPSVFPLAPSSKSTSGGTAALGCLVKDYFPEPVTVSWNSGALTSGVHTFPAVLQSSGLYSLSSVVTVPSSSLGTQTYICNVNHKPSNTKVDKKVEPKSCDKTHTCPPCPAGELLTGPSVFLFPPKPKDTLMISRTPEVTCVVVDVSDEDPEVKFNWYVDGVEVHNAKTKPREEQYNSTYRVVSVLTVLHQDWLNGKEYKCKVSNKALPKPIEKTISKAKGQPREPQVYTLPPSREEMTKNQVSLTCLVKGFYPSDIAVEWESNGQPENNYKTTPPVLDSDGSFFLYSKLTVDKSRWQQGNVFSCSVMHEALHNHYTQKSLSLSP
light: DIVMTQSPATLSLSPGERATLSCTSSQSVYHANWLSWFQQKPGQPPKLLIYWASTLAYGVPSRFSGSGSGTDFTLTISSLQPEDAATYYCAGGYGGGRYAFGQGTKVEIKRTVAAPSVFIFPPSDEQLKSGTASVVCLLNNFYPREAKVQWKVDNALQSGNSQESVTEQDSKDSTYSLSSTLTLSKADYEKHKVYACEVTHQGLSSPVTKSFNRGEC
B2: M103205H795-MY448/M103202L889-SK1 (antibody, human IgG1, kappa, name in EU numbering)
heavy: B1 heavy with G234K
light: B1 light
B3: M103205H795-MY446/M103202L889-SK1 (antibody, human IgG1, kappa, name in EU numbering)
heavy: B1 heavy with G234H
light: B1 light
B4: MS1032LO19-SG1074 (antibody, name in EU numbering)
heavy: QVQLVESGGGLVQPGGSLRLSCAVSGIDLSHDDISWVRQAPGKGLEWVSIISYAGSTYYASWAKGRLTISKDTSKNQVVLTMTNMDPVDTATYYCARGVPAYSHGGDLWGQGTLVTVSSASTKGPSVFPLAPSSKSTSGGTAALGCLVKDYFPEPVTVSWNSGALTSGVHTFPAVLQSSGLYSLSSVVTVPSSSLGTQTYICNVNHKPSNTKVDKKVEPKSCDKTHTCPPCPAPELLNGPSVFLFPPKPKDTLMISRTPEVTCVVVDVSDEDPEVKFNWYVDGVEVHNAKTKPREELYNSTYRVVSVLTVLHRDWLNGKEYKCKVSNTALPKPIEKTISKAKGQRREPQVYTLPPSREEMTKNQVSLTCLVKGFYPSDIAVEWESNGQPENNYKTTPPVLDSDGSFFLYSKLTVDKSRWQQGNVFSCSVLHEALHAHTTRKELSLSP
light: B1 light with S25T, A32E
notes: tied to rows r15/r33 by row order only; also called MS103240H795-SG1074
B5: MS1032LO06-SG1029 (antibody, human IgG1, kappa)
heavy: B1 heavy with G234P, T238N, Q297L, Q313R, D415K, N436A
light: B1 light
notes: tied to rows r9/r27 by row order only; also called MS103205H795-SG1029; copies: 2 + 2
B6: MS1032LO06-SG1031 (antibody, human IgG1, kappa, name in EU numbering)
heavy: B1 heavy with G234P, T238N, Q313R, D415K, N436A
light: B1 light
notes: tied to rows r10/r28 by row order only; also called MS103205H795-SG1031; copies: 2 + 2
B7: MS1032LO06-SG1016 (antibody, human IgG1, kappa)
heavy: B1 heavy with G234P, T238N, D270E, Q313R, P398M, D401K, N436A
light: B1 light
notes: tied to rows r8/r26 by row order only; also called MS103205H795-SG1016; copies: 2 + 2
B8: MS1032LO19-SG1079 (antibody)
heavy: B4 heavy with T328K, R345P, D415K, L430M, T438Y
light: B1 light with S25T, A32E
notes: tied to rows r17/r35 by row order only; also called MS103240H795-SG1079; copies: 2 + 2
B9: MS1032LO06-MY101 (antibody, human IgG1, kappa)
heavy: B1 heavy with G234P, T238N, D270E, P398M
light: B1 light
notes: also called M103205H795-MY101; copies: 2 + 2
B10: M103205H795-MY524 / M103202L889-SK1 (antibody, human IgG1, kappa, name in EU numbering)
heavy: B1 heavy with A233G, G234P, Q297L
light: B1 light
B11: M103205H795-MY389 / M103202L889-SK1 (antibody, human IgG1, kappa, name in EU numbering)
heavy: B1 heavy with G234P, S241L
light: B1 light
B12: M103205H795-MY516 / M103202L889-SK1 (antibody)
heavy: B1 heavy with G234P, S241V, Q297L, S300L
light: B1 light
notes: 'Q235L' copied as printed, probably Q295L

Target: T1, cynomolgus monkey FcγRIIIaS …
Test: SPR (BIACORE), antibody captured, FcγR analyte, 25 C; KD of SG1 divided by KD of variant
Description: (§1) The kinetic analysis of interactions between these antibodies and FcγR was carried out using BIACORE® T200 or BIACORE® 4000 (GE Healthcare). HBS-EP+ (GE Healthcare) was used as the running buffer, and the measurement temperature was set to 25° C. […] After the measurement, the antibody captured on the chip was washed off by allowing reaction with 10 mM glycine-HCl, pH1.5 and 25 mM NaOH so that the chip was regenerated and used repeatedly. The sensorgrams obtained as measurement results were analyzed by the 1:1 Langmuir binding model using the BIACORE® Evaluation Software to calculate the binding rate constant ka (L/mol/s) and dissociation rate constant kd (1/s), and the dissociation constant KD (mol/L) was calculated from these values. […] Regarding such interactions, KD values were calculated using the following 1:1 binding model described in BIACORE® T100 Software Handbook BR1006-48 Edition AE.

Binder | KD fold (SG1 = 1) [fold]
B1 | 0.2
B2 | 0.2
B3 | 0.2

Target: T2, cynomolgus monkey FcγRIIb extracellular …
Test: as above
Description: as §1

Binder | KD fold (SG1 = 1) [fold]
B1 | 1.3
B2 | 0.8
B3 | 2.5

Target: T3, human FcγRIIb extracellular domain with …
Test: SPR, KD(parent SG1)/KD(variant)

Binder | KD fold (SG1 = 1) [fold]
B4 | 10.7
B5 | 5.9
B6 | 3.2
B7 | 0.7

Target: T4, cynomolgus monkey FcγRIIIaS …
Test: SPR, KD(parent SG1)/KD(variant)

Binder | KD fold (SG1 = 1) [fold]
B4 | 0.19
B5 | 0.05
B6 | 0.05
B8 | 0.04
B7 | 0.17

Target: T5, human FcγRIIaR extracellular domain …
Test: SPR, KD(parent SG1)/KD(variant)

Binder | KD fold (SG1 = 1) [fold]
B4 | 1.1
B5 | 0.6
B6 | 1.7
B8 | 0.1
B7 | 1.2

Target: T6, human FcγRIIaH extracellular domain …
Test: SPR, KD(parent SG1)/KD(variant)

Binder | KD fold (SG1 = 1) [fold]
B4 | 1.2
B5 | 1.5
B7 | 1.8

Target: T4, cynomolgus monkey FcγRIIIaS …
Test: SPR, antibody captured, FcγR analyte
Description: as §1

Binder | Kd [nM]
B9 | 3200

Target: T7, human FcγRIIb extracellular domain with …
Test: SPR (Biacore), KD of SG1 divided by KD of variant
Description: as §1

Binder | KD fold (SG1 = 1) [fold]
B10 | 4.6

Target: T8, cynomolgus monkey FcγRIIa2 …
Test: SPR (Biacore), antibody captured, FcgR as analyte
Description: as §1

Binder | Kd [nM]
B10 | 1100
B11 | 1600
B12 | 1300
